# B1: HCV E2: Purified recombinant HCV envelope glycoprotein E2 (Ala 384-Lys 715) expressed in CHO cells, obtained from Austral Biologicals (protein)
# chain: ETHVTGGSAGHTVSGFVSLLAPGAKQNVQLINTNGSWHLNSTALNCNDSLNTGWLAGLFYHHKFNSSGCPERLASCRPLTDFDQGWGPISYANGSGPDQRPYCWHYPPKPCGIVPAKSVCGPVYCFTPSPVVVGTTDRSGAPTYSWGENDTDVFVLNNTRPPLGNWFGCTWMNSTGFTKVCGAPPCVIGGAGNNTLHCPTDCFRKHPDATYSRCGSGPWITPRCLVDYPYRLWHYPCTINYTIFKIRMYVGGVEHRLEAACNWTRGERCDLEDRDRSELSPLLLTTTQWQVLPCSFTTLPALSTGLIHLHQNIVDVQYLYGVGSSIASWAIK
# Columns and labels:
# [1] = tested on: human fibroblasts that do not express the human LDLr (Null); test: Cell binding assay by flow cytometry, LDLr-deficient fibroblasts (Null); format: cell-based
# Description: (§1) FIG. 4D: Binding of recombinant HCV E2 and E2-LDL to human fibroblasts (FSF) and human fibroblasts negative for the human LDLr (Null). Cells were detached non-enzymatically and incubated with E2 or E2/LDL proteins. Cell-bound E2 was detected with monoclonal anti-E2 antibody 108, followed by incubation with a secondary fluorescent labeled anti-human IgG. Cells were analyzed by flow cytometry.
# (§2) Recombinant HCV E2 protein or HIV-gp120-FITC, human, rabbit or bovine lipoproteins, HCV or mock virus preparations were added to cells for 60 min at 4° C. Cells were washed and incubated with ligand-specific antibody for 60 min at 4° C. Antibody binding was detected using goat anti-human IgG-Oregon green (10 μg/ml) for 45 min at 4° C. Cells were washed two times, fixed in PBS containing 4% paraformaldehyde, and analyzed by flow cytometry (FACScan, Becton Dickinson).
# (§3) The increased level of binding of both proteins to MOLT-4 cells may be due to an association between LDL and HCV E2 that enables the resulting complex to bind to either the LDLr or to CD81. To evaluate this interaction further, mouse 3T3 cells expressing only murine CD81 or cells expressing both murine and human CD81 were studied. […] Therefore, the enhanced E2 binding following incubation with LDL appears to require human LDLr expression on the cell surface. […]
# MOLT-4 cells = test: Cell binding assay by flow cytometry, MOLT-4 cells; format: cell-based, human
# Description: (§4) MOLT-4 cells, a CD4^+ T lymphoblastoid cell line, and Huh7 cells of hepatocyte origin were obtained from ATCC (Manassas, Va.). Human foreskin fibroblasts (FSF) and LDLr-deficient foreskin fibroblasts (Null) from a patient with familial hypercholesterolemia (Hobbs et al., 1987) were kindly provided by Dr. Jheem Medh.
# as §2
# HCV-E2 was incubated with increasing concentrations of human LDL for one hour at 4° C. prior to the addition of proteins to MOLT-4 cells. Following one hour at 4° C., cells were washed and HCV E2 binding was detected by flow cytometry. […] The increase in E2 binding in the presence of LDL was seen when either the anti-HCV McAb or anti-HCV polyclonal anti-HCV were used for E2 detection (FIG. 3B). […] To determine if HCV E2 influenced binding of human LDL to MOLT-4 cells, HCV-E2 and fluorescently labeled LDL were incubated for one hour at 4° C. and added to MOLT-4 cells for an additional hour. Cells were washed and analyzed for labeled-LDL binding (FIG. 3E and FIG. 3F).
# [2] = tested on: 3T3 cells expressing human CD81; test: Cell binding assay by flow cytometry, mouse 3T3 cells with or without human CD81; format: cell-based
# Description: FIG. 4B: Binding of recombinant HCV E2 to mouse 3T3 cells. Cells were detached non-enzymatically and incubated with recombinant E2 protein. Cell-bound E2 was detected with monoclonal anti-E2 antibody 108, followed by incubation with a secondary fluorescent labeled anti-human IgG. Cells were analyzed by flow cytometry.
# FIG. 4C: Binding of HCV E2 and HCV-E2/LDL to mouse 3T3-human CD81 cells. Cells were detached non-enzymatically and incubated with E2 alone or E2/LDL. Cell-bound E2 was detected with monoclonal anti-E2 antibody 108, followed by incubation with a secondary fluorescent labeled anti-human IgG. Cells were analyzed by flow cytometry.
# as §2
# The increased level of binding of both proteins to MOLT-4 cells may be due to an association between LDL and HCV E2 that enables the resulting complex to bind to either the LDLr or to CD81. […]
# [3] = tested on: normal human foreskin fibroblasts (FSF); test: Cell binding assay by flow cytometry, human foreskin fibroblasts (FSF); format: cell-based
# Description: as §1, §2, §3
# human LDL = test: ELISA for E2-LDL interaction (anti-LDL McAb capture, anti-E2 McAb detection); format: binding
# Description: FIG. 2: Interaction of E2 with LDL. Increasing amounts of LDL were incubated with purified E2 protein at 4° C. and allowed to bind to mouse monoclonal anti-apolipoprotein B antibody coated in ELISA plates. LDL bound E2 protein was detected with a monoclonal anti-E2 antibody, followed by an alkaline-phosphatase labeled secondary antibody and PNPP substrate. The subtracted blank consisted of E2 protein in the absence of LDL.
# Microtiter plates were prepared by coating wells with 100 μl anti-LDL McAb (4 μg/ml in 100 mM bicarbonate buffer, pH 9.6) overnight (ON) at RT (Wuenschmann et al., 2000). […] Plates were washed twice with TBS followed by the addition of 100 μl of E2 protein or E2 protein with LDL in PBS. After ON incubation of samples at RT, plates were washed three times with TBS followed by the addition of anti HCV E2 McAb 108 (7.5 μg/ml). Plates were incubated for 1.5 h and washed three times with TBS; then 100 μl of anti-human IgG-alkaline phosphatase conjugate (Promega, Madison, Wis.) diluted 1/5,000 in BLOTTO was added for 1 h at RT washed four times with TBS, and incubated for 30 min with a 1-mg/ml solution of p-nitrophenyl phosphate (PNPP). Absorbance was measured at 405 nm with a multiwell plate reader. […]
# Huh-7 cells = test: Cell binding assay by flow cytometry, Huh-7 cells; format: cell-based, human; conditions: 4° C.
# Description: FIG. 3A; FIG. 3B; and FIG. 3C: Incubation of LDL enhanced binding of HCV E2. […] Cell-bound E2 was detected using a monoclonal antiE2 antibody (FIG. 3A and FIG. 3C) or a polyclonal anti-E2 serum (FIG. 3B).
# as §4, §2
molecule,measurement,setting,value
B1,E2 binding to Null fibroblasts,[1]; E2 alone,bound
same,Binding of E2-LDL complexes to Null cells compared with E2 alone,[1]; preincubation with LDL,equally to E2 alone
same,E2 binding to MOLT-4 cells,"MOLT-4 cells; E2 alone, 4° C.",bound to MOLT-4 cells
same,Amount of labeled LDL bound to MOLT-4 cells after preincubation of LDL with HCV-E2,"MOLT-4 cells; LDL up to concentrations of 2.5 μg/ml, 4° C.",the amount of LDL bound increased
same,LDL concentration at which the increase in E2 binding was saturable,"MOLT-4 cells; MOLT-4 cells, 4° C.",> 2.5 µg/mL
same,HCV E2 binding to MOLT-4 cells stripped of lipoproteins by dextran sulfate,MOLT-4 cells; cell bound bovine lipoproteins removed with dextran sulfate,decreased
same,Amount of E2 bound to MOLT-4 cells after incubation with lipoproteins,"MOLT-4 cells; human VLDL, LDL and HDL, bovine lipoproteins",increased
same,Amount of cell-bound E2 on MOLT-4 cells after preincubation with apoprotein B,MOLT-4 cells; preincubation with apoprotein B (apoB100),did not increase the amount of cell-bound E2
same,Amount of E2 protein bound to MOLT-4 cells after addition of LDL,MOLT-4 cells; preincubation with human LDL one hour at 4° C.,increased the amount of E2 protein bound
same,E2 binding to 3T3 cells,[2]; 3T3 cells expressing human CD81 vs control 3T3 cells,bound only to 3T3 cells expressing human CD81
same,Amount of cell bound HCV E2 on 3T3-human CD81 cells after preincubation with LDL,[2]; preincubation with LDL,did not increase the amount of cell bound HCV E2
same,E2 binding to FSF fibroblasts,[3]; E2 alone,bound
same,E2 binding to LDLr-expressing fibroblasts when preincubated with LDL,[3]; preincubation with LDL,increased binding
same,HCV E2 detected in ELISA with murine McAb against human LDL as capture antibody,human LDL; E2 alone vs E2 with LDL,only detected when complexed with LDL
same,Extent of E2 captured in relation to LDL concentration,human LDL; increasing amounts of LDL,directly correlated to the LDL concentration used
same,Binding of E2 protein to Huh-7 cells after preincubation with human LDL,Huh-7 cells,increased binding of E2 protein
